According to paper PMC9246713:

Molecular target: OmpK36WT (wild type OmpK36 porin trimer of K. pneumoniae ATCC 43816) (Klebsiella pneumoniae)
Assay: cryo-EM structure; OmpK36-TraN sample 0.33 mg ml^-1 diluted 1:6 in buffer A (50 mM NaCl, 10 mM HEPES pH 7.0, 0.03% DDM); graphene oxide-coated grids; Titan Krios 300 keV; 2.6 Å

OmpK36WT (wild type OmpK36 porin trimer of K. pneumoniae ATCC 43816) (natural protein)
stoichiometry N: 3

TraN from the plasmid pKpQIL (mature TraN, D28 to Q651) (natural protein)
occupancy (TraN molecules for each OmpK36 trimer) (molecule for each OmpK36 trimer): < 1
